Where two headings read alike, the source gives them in different places.
Key:
[1] = target: T1, human MerTK on human macrophages (human, UniProt Q12866 21-999); assay: cell-based or functional assay
T1 sequence: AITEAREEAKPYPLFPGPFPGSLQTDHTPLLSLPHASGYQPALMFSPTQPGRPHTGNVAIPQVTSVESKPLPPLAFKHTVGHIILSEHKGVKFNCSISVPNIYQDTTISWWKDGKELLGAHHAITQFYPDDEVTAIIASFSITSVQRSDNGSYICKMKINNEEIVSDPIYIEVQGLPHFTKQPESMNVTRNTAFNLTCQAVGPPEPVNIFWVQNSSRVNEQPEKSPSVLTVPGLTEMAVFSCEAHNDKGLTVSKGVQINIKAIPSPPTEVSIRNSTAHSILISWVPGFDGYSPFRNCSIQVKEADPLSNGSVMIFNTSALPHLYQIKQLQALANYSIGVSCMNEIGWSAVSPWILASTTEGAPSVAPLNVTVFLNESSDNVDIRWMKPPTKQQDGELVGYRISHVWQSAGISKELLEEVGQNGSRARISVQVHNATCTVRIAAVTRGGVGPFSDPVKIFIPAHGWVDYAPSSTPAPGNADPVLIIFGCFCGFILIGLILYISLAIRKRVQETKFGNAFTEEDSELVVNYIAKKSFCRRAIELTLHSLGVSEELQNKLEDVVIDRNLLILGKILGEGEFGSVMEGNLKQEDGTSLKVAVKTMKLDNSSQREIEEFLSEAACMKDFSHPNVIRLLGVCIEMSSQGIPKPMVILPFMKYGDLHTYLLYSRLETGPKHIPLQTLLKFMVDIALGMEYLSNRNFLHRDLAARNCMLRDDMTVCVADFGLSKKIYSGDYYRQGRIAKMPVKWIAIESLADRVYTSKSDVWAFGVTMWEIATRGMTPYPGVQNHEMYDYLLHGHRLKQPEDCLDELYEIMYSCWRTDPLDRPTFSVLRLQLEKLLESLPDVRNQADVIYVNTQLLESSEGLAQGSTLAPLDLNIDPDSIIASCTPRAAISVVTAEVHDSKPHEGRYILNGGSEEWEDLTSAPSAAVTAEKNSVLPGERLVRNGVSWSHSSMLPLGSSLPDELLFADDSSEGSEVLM

[2] = target: T1, human MerTK on human macrophages; assay: cell-based or functional assay; remark: listed apart in the source
[3] = target: T1, human MerTK on human macrophages; assay: cell-based or functional assay; remark: listed apart in the source
[4] = target: T2, human MerTK (human, UniProt Q12866 26-499); assay: SPR BIAcore T200, Ab captured, 37C
T2 construct: also called HuMER
T2 sequence: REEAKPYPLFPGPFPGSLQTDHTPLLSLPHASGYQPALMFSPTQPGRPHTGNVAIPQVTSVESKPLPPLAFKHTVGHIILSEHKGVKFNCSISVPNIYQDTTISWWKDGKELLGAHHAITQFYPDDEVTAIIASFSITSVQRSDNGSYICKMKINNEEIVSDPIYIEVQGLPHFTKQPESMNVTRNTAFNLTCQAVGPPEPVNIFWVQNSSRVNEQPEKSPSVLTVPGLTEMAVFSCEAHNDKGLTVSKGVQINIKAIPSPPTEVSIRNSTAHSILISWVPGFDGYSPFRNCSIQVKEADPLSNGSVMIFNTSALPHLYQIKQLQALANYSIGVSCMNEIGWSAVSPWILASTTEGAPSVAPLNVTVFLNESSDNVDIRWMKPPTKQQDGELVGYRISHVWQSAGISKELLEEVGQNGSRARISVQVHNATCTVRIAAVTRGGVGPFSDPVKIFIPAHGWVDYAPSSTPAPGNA
Description: (§1) All binding affinity determinations were obtained using Surface Plasmon Resonance (SPR) measurements from a BIAcore™-T200 instrument. Briefly, each rabbit or humanized antibody was captured to achieve approximately 100 RU (Response Units). Then, 3-fold serial dilutions of MerTK from various species (0.4 nM to 100 nM) diluted in HBS-EP buffer (0.01M HEPES pH 7.4, 0.15M NaCl, 3 mM EDTA and 0.05% v/v surfactant P20) was injected into the BIAcore™-T200 instrument at 25° C. or 37° C. with a flow rate of 30 μl/min. Association rates (kₒₙ) and dissociation rates (koff) were calculated using a simple one-to-one Langmuir binding model (BIAcore T200 evaluation software version 2.0). The equilibrium dissociation constant (KD) was calculated as the ratio koff/kₒₙ.

[5] = target: T3, cynomolgus monkey MerTK (cynomolgus monkey, UniProt A0A2K5V1H9 32-505); assay: SPR BIAcore T200, Ab captured, 37C
T3 construct: Soluble analyte in SPR; also called Cyno MerTK
T3 sequence: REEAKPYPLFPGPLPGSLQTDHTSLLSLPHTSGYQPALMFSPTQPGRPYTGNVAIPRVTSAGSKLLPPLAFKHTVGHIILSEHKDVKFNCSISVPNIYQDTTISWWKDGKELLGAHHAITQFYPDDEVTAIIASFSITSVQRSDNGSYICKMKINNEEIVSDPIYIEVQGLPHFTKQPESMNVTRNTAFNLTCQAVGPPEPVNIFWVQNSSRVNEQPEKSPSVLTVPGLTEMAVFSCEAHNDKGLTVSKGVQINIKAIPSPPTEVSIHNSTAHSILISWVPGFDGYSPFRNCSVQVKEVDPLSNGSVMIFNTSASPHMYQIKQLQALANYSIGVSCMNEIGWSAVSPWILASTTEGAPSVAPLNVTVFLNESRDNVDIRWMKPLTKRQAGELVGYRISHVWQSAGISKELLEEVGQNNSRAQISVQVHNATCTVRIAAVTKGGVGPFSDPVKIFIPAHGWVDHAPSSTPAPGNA
Description: as §1

[6] = target: T2, human MerTK; assay: SPR BIAcore T200, Ab captured on protein A chip, 25C
Text: (§2) For binding affinity determinations of anti-MerTK antibodies of the present disclosure as a control along with commercial MerTK antibodies, Surface Plasmon Resonance (SPR) measurement with a BIAcore™-T200 instrument was used. First, two rabbit antibodies (Y323 and 10g86_D21F11) and the anti-MerTK antibody h13B4.v16 were captured by protein A sensor chip, and eight mouse antibodies (A3KCAT,2D2,7E5G1,7N-20,590H11G1E3, MAB891, MAB8911 and MAB8912-100) were captured by goat anti-mouse IgGs sensor chip respectively on each flow cell to achieve approximately 100RU. Three-fold serial dilutions of human MerTK (0.4 nM to 100 nM) were injected in HBS-EP buffer (0.01M HEPES pH 7.4, 0.15M NaCl, 3 mM EDTA and 0.05% v/v surfactant P20) at 25° C. with a flow rate of 50 μl/min to record the binding response as a function of time. The sensorgram was fitted with one-to-one Langmuir binding model to calculate association rates (kₒₙ) and dissociation rates (koff) (BIAcore T200 evaluation software version 2.0). The binding affinity (equilibrium dissociation constant (KD)) was calculated as the ratio koff/kₒₙ.

[7] = target: T2, human MerTK; assay: SPR (BIAcore kinetic screen), h13B4.v16 captured on protein A chip, hMerTK as analyte, 25°C, 1:1 binding model [Cont.]
Text: as §2

B1: h13B4.v16 (antibody, V domains shown)
VH: EVQLVESGEGLVQPGGSLRLSCAASGFSLSSYAMGWVRQAPGKGLEYVGIINSYGNTYYANWAKGRFTISRDNSKNTVYLQMGSLRAEDMAVYYCARDPGVSSNLWGRGTLVTVSS
VL: DIQMTQSPSTLSASVGDRVTITCQASQNIYSGLAWYQQKPGKAPKLLIYGASKLASGVPSRFSGSGSGTEFTLTISSLQPDDFATYYCQATYYSSNSVAFGGGTKVEIK
notes: Humanized, human IgG1; also called 13B4 Fully Humanized; 13B4 Humanized polished mAb
fold potency in inhibiting human macrophage phagocytosis, against h10F7.v16 [1]: 5.2 fold | IC50 (nM), efferocytosis by human macrophages, Average (3 Donors) [2]: 0.08 nM | IC50 (nM), efferocytosis by human macrophages, Donor A [2]: 0.07 nM | IC50 (nM), efferocytosis by human macrophages, Donor B [2]: 0.08 nM | IC50 (nM), efferocytosis by human macrophages, Donor C [2]: 0.09 nM | Max Inhibition (%), efferocytosis by human macrophages, Average (3 Donors) [2]: 83% | Max Inhibition (%), efferocytosis by human macrophages, Donor A [2]: 91% | Max Inhibition (%), efferocytosis by human macrophages, Donor B [2]: 82% | Max Inhibition (%), efferocytosis by human macrophages, Donor C [2]: 77% | IC50 (nM), efferocytosis by human macrophages, Average (3 Donors) [3]: 0.08 nM | Kd [4]: 5100 pM | Kd [5]: 5700 pM | Kd [6]: 1600 pM | Kd [7]: 1630 pM | koff [7]: 0.000151 s⁻¹ | kon [7]: 92400 M⁻¹ s⁻¹

Source: patent US20220135701A1 (Genentech, published 2022)
